assay: yeast display, Sf9 membrane polyspecificity reagent, FACS + sequencing; frameworks hold sequencing errors
Outline: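 Synthetic nanobody libraries on Saccharomyces cerevisiae BJ5465 were galactose-induced for 36–48 hours, stained 1 hour at 4 °C with 10% biotinylated, detergent-solubilized Sf9 membrane reagent and enriched on streptavidin microbeads. FACS then separated cells into low and high (top ~1%) gates by anti-HA (expression) and streptavidin (reagent binding) fluorescence. Genes were colony-PCR amplified, MiSeq 2 × 250 sequenced and CDR-length filtered. A clone's polyreactivity label is that of its gate of origin.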

Sequence | polyreactivity (PSR sort gate)
QVQLVESGGGLVQAGGSLRLSCAASGRIFRWYAMGWYRQAPGKERELVAAITRSGSTTYYADSVKGRFTISRDNAKNAVYLQMNSLKPEDTAVSYSAAGYRGGYGWSVRMDYWGQGTQVTVSS | high polyreactivity
QVQLVESGGGLVQAGGSLRLSCAASGRIFRWYAMGWYRQAPGKERELVARITSGSSTYYADSVKGRFTISRDNAKNTVYLQMHSLKPEDTAVYYCATRTLQPGYTYPRYYWGQGTQVTVSS | high polyreactivity
QVQLVESGGGLVQAGGSLRLSCAASGRIFRYKAMGGYRQAPGKEREFVAAISSSGGSTFYADSVKGRFTISRDNAKNTVYLQMNSLIPEDTAAYYCAADDAGFWYYYYGRYVTFDYWGQGTQVTVSS | low polyreactivity
QVQLVESGGGLVQAGGSLRLSCAASGRIFRYNAMGWYRQAPGKERELVAAIRFSGGSTYYADSVKGRFTISRDNAKNTVYLQMNSLKPEYSAVYYCAKVYFRVQSGMDYWGQGTQVTVSS | low polyreactivity
QVQLVESGGGLVQAGGSLRLSCAASGRIFRYNAMGWYRQAPGKERELVAAISGSGDRMYYADSVKGRFTISRDNAKNTVYFHMNSLKPEDTAVYYCAADVVWRQYGSWFYYWGQGTQVTVSS | high polyreactivity
QVQLVESGGGLVQAGGSLRLSCAASGRIFRYNAMGWYRQAPGKERELVAAISRSGGSTYYADSVKGRFTISRDNAKNTVYLQINSLKPEDTAVYYCAVGSPYGGRAPWVRGGDYWGQGTQVTVSS | high polyreactivity
QVQLVESGGGLVQAGGSLRLSCAASGRIFRYNAMGWYRQAPGKERELVAAITWDGGSTYYADSVKGRFTISRDNAKNTVYLQMNSLKPEDTAVYYCNAVTRSYYSYYYWGQGTQVTVSS | high polyreactivity
QVQLVESGGGLVQAGGSLRLSCAASGRIFRYNAMGWYRQAPGKERELVASINQRGGSTYYADSVKGRFTISRDNAKNTVYLQMNSLKPEDTAVYYCAKRFNSGYYYWGQGTQVTVSS | high polyreactivity
QVQLVESGGGLVQAGGSLRLSCAASGRIFRYNAMGWYRQAPGKERELVATITDGGSTSYADSVKGRFTISRDNAKNTVYLQMNSLKPEDTAVYYCARDPLPSYWKVWSRPTFDYWGQGTQVTVSS | low polyreactivity
QVQLVESGGGLVQAGGSLRLSCAASGRIFRYNAMGWYRQAPGKETELVAVFSGSGGSTYYADSVKGRFTISRDNAKHTVYVQMNSLKPEDTAVYYCAAQFHVSWYNYWGQGTQVTVSS | low polyreactivity
QVQLVESGGGLVQAGGSLRLSCAASGRIFRYYAMGWYIQAPGKERELVAAISKSGGGTFYADSVKGRFTISRDNAKNTVYLQMNSLKPEDTEVYYCAARDKGLGKHDYWGQGTQVTVSS | low polyreactivity
QVQLVESGGGLVQAGGSLRLSCAASGRIFRYYAMGWYRQAPGKEREFVAAINSSGVNTYYADSVKGRFTISRDNAKNTVYLQMNSLKPEDTAVYYCAFLGMDYWGQGTQVTVSS | high polyreactivity
QVQLVESGGGLVQAGGSLRLSCAASGRIFRYYAMGWYRQAPGKERELVAAINSGGSTKYADSVKGRFTISRDNAKNTVYLQMNSLTPEDTAVYYCNKDHAFSRYWYGGFDYWGQGTQVTVSS | high polyreactivity
QVQLVESGGGLVQAGGSLRLSCAASGRIFRYYAMGWYRQAPGKERELVAAIRGGGSTYYADSVKGRFTISRDNAKNTVYLQMNSLKPEDTAVYYCAAPLIISTLWYKRYDYWGQGTQVTVSS | high polyreactivity
QVQLVESGGGLVQAGGSLRLSCAASGRIFRYYAMGWYRQAPGKERELVAAISGTGGNTYYADSVKGRSTISRDNAKNTVYLQMNSLKPEDTAVYYCAADQEWYYYFDSFAYYILDYWGQGTQVTVSS | high polyreactivity
QVQLVESGGGLVQAGGSLRLSCAASGRIFRYYAMGWYRQAPGKERELVAAISKTGGSTYYADSVKGRFTISRDNAKNTVYLQMNSLKPEDTAVYYCAAVGRYSYLSSEGDYWGQGTQVTVSS | high polyreactivity

Sequence | polyreactivity (PSR sort gate)
QVQLVESGGGLVQAGGSLRLSCAASGRIFRYYAMGWYRQAPGKERELVAAISSGGRTYYADSVKGRFTISRDNAKNTVYLQMNSLKPEDTAVYYCNAYAYHAGGDYWGQGTQVTVSS | high polyreactivity
QVQLVESGGGLVQAGGSLRLSCAASGRIFRYYAMGWYRQAPGKERELVAAISSGVGNTYYADSVKWRFTISRDNAKNTVYLQKNSLKPEDTAVYYCNAKWRKFGTVRYDYWGQGTQVTVSS | high polyreactivity
QVQLVESGGGLVQAGGSLRLSCAASGRIFRYYAMGWYRQAPGKERELVADSTRGGGSTYYADSVKGRFTISRDNAKNTVYLQMNSLKPEDTAVYYCAKDGSGGLPVLYRYRYDYWGQGTQVTVSS | high polyreactivity
QVQLVESGGGLVQAGGSLRLSCAASGRIFRYYAMGWYRQAPGKERELVAGISRSGGRTYYADSVKGRFTISRDNAKNTVYLQMNSLKPEDTAVYYCNASRGYPYHYDYWGQGTQVTVSS | high polyreactivity
QVQLVESGGGLVQAGGSLRLSCAASGRIFRYYSMGWYRQAPGKERELVAAISGGGSTYYADSVKGRFTISRDNAKNTVYLQMNSLKPEDTAVYYCAALRSSQSKGDYWGQGTQVTVSS | high polyreactivity
QVQLVESGGGLVQAGGSLRLSCAASGRIFRYYTMGWYRQAPGKERELVAAIRLAGSTTYYADSVKGRFTISRDNAKNTVYLQMNSLNPEDSAVYSCTTRYPVPSGYDYWGHGTQVTVSS | high polyreactivity
QVQLVESGGGLVQAGGSLRLSCAASGRIFRYYTMGWYTPAPGNERELVAAISSSGGRTYYADSVKGRFTISRDNAKNTVYLQMNSLKPEDTAVYYCNAYRRFSAFDYWGQGTQVTVTS | high polyreactivity
QVQLVESGGGLVQAGGSLRLSCAASGRIFSAYAMGWYRQAPGKEREFVAAISSRGGSTNYADSVKGRFTISRDNANNTVYLHMNSLKPEDTAVYYCNARYVQWYWIGKVIHIDNDYWGQGTQVNVSS | low polyreactivity
QVQLVESGGGLVQAGGSLRLSCAASGRIFSAYVMGWYRQAPGKERELVAAISSGGSRTSYADSVKGRVTISRDNAKNTVYLQMISLKPEDTAVYYCAASATFWGQGTQVNVSS | high polyreactivity
QVQLVESGGGLVQAGGSLRLSCAASGRIFSDYAMGWYRQAPGKERELVATISASGGSTYYADSVKGRFTVSRDNAKNSVYLQMNSLKPEDTAVYYCAGDYEGYNFDYWGQGTQVTVSS | low polyreactivity
QVQLVESGGGLVQAGGSLRLSCAASGRIFSEYAMGWYRQAPGKERELVAAISRRGGRTYYADSVKGRFTISRDNAKNTVYLQMNSLKPEETAVYYCAAKIIWFTIRHGSAGFKYWGQGTQVTVSS | high polyreactivity
QVQLVESGGGLVQAGGSLRLSCAASGRIFSFNAMGWYRQAPGKERELVASGGSTYADSVKGRFTISRDNAKNTVYLQMNSLKPEETAVYYCAADPFYYFPSPFDYWGQGTQVTVSS | low polyreactivity
QVQLVESGGGLVQAGGSLRLSCAASGRIFSFYAMGWKRQAPGKERELVAAITWGDGSTYYADSVKGRFTISRDNAKNTVYLQMNSLKPEDTAVYYCNKTYIDTTVYDVIMDYWGQGTQVTVSS | low polyreactivity
QVQLVESGGGLVQAGGSLRLSCAASGRIFSFYAMGWYRQAPGKERELVAAITYTDGSTYADSVKGRFTISRDNAKNTVYLQMNSLKPEDTAVYYCATRYRWTPYDYWGQGTQVTVSS | low polyreactivity
QVQLVESGGGLVQAGGSLRLSCAASGRIFSGNAMGWYRQAPGKERELVAAISWSGGSTYYADSVKGRFTISRDNAKNSVYLQMNSLKPEDTAVSYCNAPGYRRYGSRMGYWGQGTQVTVSS | high polyreactivity
QVQLVESGGGLVQAGGSLRLSCAASGRIFSGYAMGWYRQATGKERELVAAITSVGSTNYADSVKGRFTISRDNAKNTVYLQMNSLKPEDTAVYYCAARSQIYYRYRSYGYWGQGTQVTVSS | high polyreactivity
